Measured values from US20240117019A1 (UNIVERSITY OF GEORGIA RESEARCH FOUNDATION, published 2024).

Experiments:
[1] = target: T1, recombinant His-tagged full-length pneumococcal surface protein A (PspA) from strain TCH8431 (serotype 19A) (Streptococcus pneumoniae strain TCH8431 …); assay: ELISA on coated recombinant PspA, non-linear regression fit
T1 construct: range 1-725; also called recombinant PspA

[2] = target: T2, MBP-PspA fragment 1-512 fusion protein (Streptococcus pneumoniae strain TCH8431 …, UniProt P0AEX9 27-392 = MBP); assay: ELISA on coated MBP-PspA fragment, OD405
T2 construct: not shown: C-terminal His-tag encoded by the reverse primer PspA512-R

[3] = target: T3, MBP-PspA fragment 1-438 fusion protein (Streptococcus pneumoniae strain TCH8431 …, UniProt P0AEX9 27-392 = MBP); assay: ELISA on coated MBP-PspA fragment, OD405
T3 construct: not shown: C-terminal His-tag encoded by the reverse primer PspA438-R

[4] = target: T4, PspA protein of pneumococcal strain TCH8431 (serotype 19A), native, in lysates or on whole bacteria (Streptococcus pneumoniae strain TCH8431 …); assay: ELISA on plates coated with fixed whole bacteria, TCH8431 (19A), OD405
T4 construct: whole, on cells; also called PspA protein from strain TCH8431

B1: human monoclonal antibody PspA16 (antibody, V domains shown)
VH: QVQLVQSGPDVKKPGASVKVSCKTSGYTFTGYYMHWVRQAPGQGLEWMGWVNPNTGGTSYAQKFQGRVTVTRDTSISTVYMELSALGSDDTAIYFCARAWAPGAEYLHHWGQGTLVTVSS
VL: EIVMTQSPGTLSLSPGETATLSCRASQSVGSSYLAWYQQKPGQAPRLLIFGASNRATGIPVRFSASGSGTDFTLTISRLEPEDFAVYYCQQHDHSPFTFGPGTKVDLK
notes: also called mAb PspA16
- EC50 [1]: 0.026 µg/mL
- EC50 (read off the curve) [2]: ~0.04 µg/mL
- EC50 (read off the curve) [3]: ~0.04 µg/mL
- EC50 (read off the curve) [4]: ~0.08 µg/mL
